Laboratory results as given in US20230114801A1 (SYSTIMMUNE, published 2023).

Legend:
[1] = target: T1, human CD3 (human, UniProt P07766 23-126; P04234 22-105); test: BLI (Octet), unstapled control mAb or Fc-scFv
T1 construct: also called His-tagged human CD3; human CD3 (Acro CDD-H52W1)

[2] = target: T2, human 4-1BB (human, UniProt Q07011 24-186, limits assumed); test: BLI (Octet), unstapled control mAb or Fc-scFv
T2 construct: Soluble antigen in Octet; construct not described

[3] = target: T3, human PD-L1 (human, UniProt Q9NZQ7 19-238); test: BLI (Octet), unstapled control mAb or Fc-scFv
T3 construct: Soluble antigen in Octet; bought; also called human PD-L1 (Acro PD1-H5229)

[4] = target: T4, CEA (UniProt P06731 35-685, limits assumed); test: BLI (Octet), unstapled control mAb or Fc-scFv
T4 sequence (looked up): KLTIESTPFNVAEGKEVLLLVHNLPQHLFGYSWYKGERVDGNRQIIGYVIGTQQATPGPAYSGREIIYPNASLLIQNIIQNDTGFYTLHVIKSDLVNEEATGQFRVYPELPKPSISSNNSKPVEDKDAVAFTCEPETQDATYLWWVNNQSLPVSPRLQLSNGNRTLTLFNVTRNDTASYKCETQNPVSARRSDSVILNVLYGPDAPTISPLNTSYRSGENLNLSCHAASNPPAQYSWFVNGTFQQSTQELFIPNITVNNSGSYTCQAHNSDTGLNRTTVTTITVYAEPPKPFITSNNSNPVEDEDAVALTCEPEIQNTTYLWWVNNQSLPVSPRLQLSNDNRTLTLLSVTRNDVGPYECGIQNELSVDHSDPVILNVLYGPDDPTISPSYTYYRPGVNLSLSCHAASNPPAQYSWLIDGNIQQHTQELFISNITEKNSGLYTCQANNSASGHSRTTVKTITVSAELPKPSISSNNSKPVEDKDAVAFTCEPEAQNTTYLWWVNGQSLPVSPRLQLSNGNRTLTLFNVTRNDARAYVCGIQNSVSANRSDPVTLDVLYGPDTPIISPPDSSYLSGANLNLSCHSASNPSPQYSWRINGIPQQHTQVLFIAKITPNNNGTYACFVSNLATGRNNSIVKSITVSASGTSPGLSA

[5] = target: NKG2D ligand; test: BLI (Octet); conditions and ligand not stated
[6] = target: T1, human CD3; test: BLI (Octet); conditions not stated
[7] = target: T5, SI-49P9; test: BLI (Octet); conditions not stated
T5 construct: penta-miniGNC; D1 αCD3, D2 αCD19, D3 NKG2D receptor dimer, D4 41BBL, D5 αPD-L1
T5 sequence (chain, as listed by the source): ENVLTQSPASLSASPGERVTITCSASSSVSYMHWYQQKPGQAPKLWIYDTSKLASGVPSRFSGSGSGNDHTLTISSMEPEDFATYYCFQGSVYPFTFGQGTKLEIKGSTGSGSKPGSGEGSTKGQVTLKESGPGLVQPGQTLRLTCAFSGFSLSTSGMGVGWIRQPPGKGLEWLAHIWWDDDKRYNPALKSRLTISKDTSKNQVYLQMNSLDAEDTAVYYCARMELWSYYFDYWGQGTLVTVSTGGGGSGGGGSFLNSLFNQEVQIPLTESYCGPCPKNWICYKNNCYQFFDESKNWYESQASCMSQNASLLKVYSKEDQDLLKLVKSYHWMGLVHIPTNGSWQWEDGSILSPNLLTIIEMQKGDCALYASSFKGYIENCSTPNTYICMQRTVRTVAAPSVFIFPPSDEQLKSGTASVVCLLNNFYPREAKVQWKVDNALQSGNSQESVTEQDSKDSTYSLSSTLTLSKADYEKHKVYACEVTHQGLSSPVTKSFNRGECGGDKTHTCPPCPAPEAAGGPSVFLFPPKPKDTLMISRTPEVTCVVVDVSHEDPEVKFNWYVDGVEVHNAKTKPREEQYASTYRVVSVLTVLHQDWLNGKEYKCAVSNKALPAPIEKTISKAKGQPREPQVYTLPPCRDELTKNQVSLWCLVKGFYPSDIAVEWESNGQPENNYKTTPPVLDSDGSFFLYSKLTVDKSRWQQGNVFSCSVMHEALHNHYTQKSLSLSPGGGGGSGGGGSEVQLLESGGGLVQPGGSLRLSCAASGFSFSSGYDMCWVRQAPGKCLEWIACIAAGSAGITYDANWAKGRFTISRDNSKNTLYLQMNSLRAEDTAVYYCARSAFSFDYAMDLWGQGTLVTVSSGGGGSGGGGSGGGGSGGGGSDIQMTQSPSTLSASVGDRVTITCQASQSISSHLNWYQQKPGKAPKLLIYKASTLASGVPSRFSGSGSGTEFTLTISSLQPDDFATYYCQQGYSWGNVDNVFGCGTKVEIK

B1: SI-9C21 (antibody, human IgG1, kappa, V domains shown)
VH: EVQLVESGGGLVQPGGSLRLSCTASGFTISTNAMSWVRQAPGKGLEWVGVITGRDITYYASWAKGRFTISRDTSKNTVYLQMNSLRAEDTAVYYCARDGGSSAITSNNIWGQGTLVTVSS
VL: EIVMTQSPSTLSASVGDRVIITCQASESISSWLAWYQQKPGKAPKLLIYEASKLASGVPSRFSGSGSGAEFTLTISSLQPDDFATYYCQGYFYFISRTYVNSFGQGTKLTVLR
notes: monoclonal antibody control for the αCD3 domain; also called αCD3 mAb; D3 = αCD3 control
Kd [1]: 26.3 nM

B2: SI-35FS11 (Fc fusion)
chain: EPKSSDKTHTCPPCPAPEAAGAPSVFLFPPKPKDTLMISRTPEVTCVVVDVSHEDPEVKFNWYVDGVEVHNAKTKPREEQYNSTYRVVSVLTVLHQDWLNGKEYKCAVSNKALPAPIEKTISKAKGQPREPQVYTLPPSRDELTKNQVSLTCLVKGFYPSDIAVEWESNGQPENNYKTTPPVLDSDGSFFLYSKLTVDKSRWQQGNVFSCSVMHEALHNHYTQKSLSLSPGGGGGSGGGGSRSLVESGGGLVQPGGSLRLSCTASGFTISSYHMQWVRQAPGKGLEYIGTISSGGNVYYASSARGRFTISRPSSKNTVDLQMNSLRAEDTAVYYCARDSGYSDPMWGQGTLVTVSSGGGGSGGGGSGGGGSGGGGSDVVMTQSPSSVSASVGDRVTITCQASQNIRTYLSWYQQKPGKAPKLLIYAAANLASGVPSRFSGSGSGTDFTLTISDLEPGDAATYYCQSTYLGTDYVGGAFGGGTKVEIK
notes: Fc-scFv control for the α4-1BB domain; also called SI-35SF11; α4-1BB Fc-scFv
Kd [2]: 14.9 nM

B3: SI-3FS11 (Fc fusion)
chain: EPKSSDKTHTCPPCPAPEAAGAPSVFLFPPKPKDTLMISRTPEVTCVVVDVSHEDPEVKFNWYVDGVEVHNAKTKPREEQYNSTYRVVSVLTVLHQDWLNGKEYKCAVSNKALPAPIEKTISKAKGQPREPQVYTLPPSRDELTKNQVSLTCLVKGFYPSDIAVEWESNGQPENNYKTTPPVLDSDGSFFLYSKLTVDKSRWQQGNVFSCSVMHEALHNHYTQKSLSLSPGGGGGSGGGGSEVQLLESGGGLVQPGGSLRLSCAASGFSFSSGYDMCWVRQAPGKGLEWIACIAAGSAGITYDANWAKGRFTISRDNSKNTLYLQMNSLRAEDTAVYYCARSAFSFDYAMDLWGQGTLVTVSSGGGGSGGGGSGGGGSGGGGSDIQMTQSPSTLSASVGDRVTITCQASQSISSHLNWYQQKPGKAPKLLIYKASTLASGVPSRFSGSGSGTEFTLTISSLQPDDFATYYCQQGYSWGNVDNVFGGGTKVEIK
notes: Fc-scFv control for the αPD-L1 domain; also called SI-3SF11; αPD-L1 Fc-scFv
Kd [3]: 0.94 nM

B4: SI-20C14 (antibody, human IgG1, kappa, V domains shown)
VH: EVQLVESGGGLVQPGGSLRLSCAASGFSFSGTQYVCWVRQAPGKGLEWIGCIYVDVANTYYATSVKGRFTISRDNSKNTLYLQMNSLRAEDTAVYYCASHDTVCAGCGLDLWGQGTLVTVSS
VL: DIQMTQSPSTLSASVGDRVTITCQASENIYSNLAWYQQKPGKAPKLLIYDASTLASGVPSRFSGSGSGTEFTLTISSLQPDDFATYYCQSTYYNNIIYGAAFGGGTKVEIKR
notes: monoclonal antibody control for the αCEA domain; also called αCEA mAb 656E11; SI-20C14 (anti-CEA 656E11)
Kd [4]: < 0.001 nM

B5: SI-49R27 (bispecific antibody, human IgG1, kappa, L234A L235A, N297A)
chain 1: EIVMTQSPSTLSASVGDRVIITCQASESISSWLAWYQQKPGKAPKLLIYEASKLASGVPSRFSGSGSGAEFTLTISSLQPDDFATYYCQGYFYFISRTYVNSFGCGTKLTVLGSTGSGSKPGSGEGSTKGEVQLVESGGGLVQPGGSLRLSCTASGFTISTNAMSWVRQAPGKCLEWVGVITGRDITYYASWAKGRFTISRDTSKNTVYLQMNSLRAEDTAVYYCARDGGSSAITSNNIWGQGTLVTVSTGGGGSGGGGSFLNSLFNQEVQIPLTESYCGPCPKNWICYKNNCYQFFDESKNWYESQASCMSQNASLLKVYSKEDQDLLKLVKSYHWMGLVHIPTNGSWQWEDGSILSPNLLTIIEMQKGDCALYASSFKGYIENCSTPNTYICMQRTVASTKGPSVFPLAPSSKSTSGGTAALGCLVKDYFPEPVTVSWNSGALTSGVHTFPAVLQSSGLYSLSSVVTVPSSSLGTQTYICNVNHKPSNTKVDKRVEPKSCDKTHTCPPCPAPEAAGGPSVFLFPPKPKDTLMISRTPEVTCVVVDVSHEDPEVKFNWYVDGVEVHNAKTKPREEQYASTYRVVSVLTVLHQDWLNGKEYKCAVSNKALPAPIEKTISKAKGQPREPQVCTLPPSRDELTKNQVSLSCAVKGFYPSDIAVEWESNGQPENNYKTTPPVLDSDGSFFLVSKLTVDKSRWQQGNVFSCSVMHEALHNHYTQKSLSLSPG
chain 2: not shown
notes: bi-miniGNC; D1 αCD3, D3 NKG2D receptor dimer
Kd [5]: 16 nM | Kd [6]: 32.2 nM

B6: CD19 (receptor, UniProt P15391 20-291, looked up)
chain: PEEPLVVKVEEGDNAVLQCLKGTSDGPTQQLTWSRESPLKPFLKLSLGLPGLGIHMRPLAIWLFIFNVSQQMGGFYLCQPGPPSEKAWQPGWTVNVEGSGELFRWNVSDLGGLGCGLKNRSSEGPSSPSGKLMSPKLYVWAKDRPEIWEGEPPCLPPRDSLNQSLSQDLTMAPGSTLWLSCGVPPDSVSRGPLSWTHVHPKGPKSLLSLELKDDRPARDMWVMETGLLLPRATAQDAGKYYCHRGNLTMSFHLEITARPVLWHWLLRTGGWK
Kd [7]: 6.4 nM
